Assay results taken from publication PMC4264578.
Where two headings read alike, the source gives them in different places.

How the values were obtained:
Assay in all cases: EMSA
[1] = biological target: T1, GST-SUV39H1 (UniProt O43463 1-412)
T1 sequence: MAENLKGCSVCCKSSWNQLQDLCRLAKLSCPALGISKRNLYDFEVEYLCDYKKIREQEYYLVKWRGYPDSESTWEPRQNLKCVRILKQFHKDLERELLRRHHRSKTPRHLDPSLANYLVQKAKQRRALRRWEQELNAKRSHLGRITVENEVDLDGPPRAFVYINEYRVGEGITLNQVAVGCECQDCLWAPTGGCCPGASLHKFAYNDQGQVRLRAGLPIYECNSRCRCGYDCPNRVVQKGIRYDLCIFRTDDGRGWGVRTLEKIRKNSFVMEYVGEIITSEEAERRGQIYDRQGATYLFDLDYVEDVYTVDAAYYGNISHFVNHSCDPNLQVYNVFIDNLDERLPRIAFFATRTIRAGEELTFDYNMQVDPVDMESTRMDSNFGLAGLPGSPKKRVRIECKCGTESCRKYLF

[2] = biological target: T1, GST-SUV39H1; remark: listed apart in the source
[3] = biological target: T1, GST-SUV39H1; remark: listed apart in the source

B1: (UUAGGG)10 TERRA RNA (ssRNA)
RNA: UUAGGGUUAGGGUUAGGGUUAGGGUUAGGGUUAGGGUUAGGGUUAGGGUUAGGGUUAGGG
Question: Does B1 bind [1]?
Answer: Result: binds

Question: Does UUAGGGUUAGGGUUAGGGUUAGGGUUAGGGUUAGGGUUAGGG (ssRNA) [(UUAGGG)7 TERRA RNA] bind [2]?
Answer: Result: binds

B2: (TTAGGG)10 DNA (ssDNA)
DNA: TTAGGGTTAGGGTTAGGGTTAGGGTTAGGGTTAGGGTTAGGGTTAGGGTTAGGGTTAGGG
Question: Does B2 bind [3]?
Answer: Result: no binding
